Source: US8124742
Changes are numbered by the printed parent chain.

T1: human Rh(D) antigen on Rh(D)-positive red blood cells (human, UniProt Q02161 2-417)
T1 construct: whole, on cells; also called wt; wild type Rh(D)
T1 sequence (looked up): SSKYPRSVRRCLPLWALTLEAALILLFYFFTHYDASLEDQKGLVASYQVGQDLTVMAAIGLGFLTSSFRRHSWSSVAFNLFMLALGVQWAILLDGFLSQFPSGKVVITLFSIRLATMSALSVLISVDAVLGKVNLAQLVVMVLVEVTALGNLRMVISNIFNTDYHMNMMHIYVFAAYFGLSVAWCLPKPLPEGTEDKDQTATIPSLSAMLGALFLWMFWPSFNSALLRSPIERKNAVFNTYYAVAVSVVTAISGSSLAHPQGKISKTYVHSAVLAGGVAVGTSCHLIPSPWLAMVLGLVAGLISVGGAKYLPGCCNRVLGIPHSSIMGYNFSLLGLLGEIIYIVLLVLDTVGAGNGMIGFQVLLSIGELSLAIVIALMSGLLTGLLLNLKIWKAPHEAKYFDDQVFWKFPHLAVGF

B1: SH10 (Fab, V domains shown)
VH: VQLLEESGGGVVQPGRSLRLSCAASGFTFSRNGMHWVRQAPGKGLEWVAFIWFDGSNKYYADSVKGRFTISRDNSKNTLYLQMNSLRADDTAVYYCAREEALFRGLTRWSYGMDVWGQGTTVSVSS
VL: AELQDPVVSVALGQTVRITCQGDGLRSYYASWYQQKPGQAPKLVMYGRNNRPSGIPGRFSGSSSGQTAALTITGTQAEDEADYYCQSRATSGNPVVFGGGTKLTVL
notes: Fab on M13 phage
B2: SH32 (Fab, V domains shown)
VH: EVQLLESGGGVVQPGRSLRLSCEASKFTLYNYGMHWVRQAPGKGLEWVAFIWFDGSNKYYEDSVKGRFTVSRDNSKNTLYLQMNSLRAEDTAVYYCARELSKKVALSRYYYYMDVWGQGTTVTVSS
VL: AELTQEPSLTVSPGGTVTLTCASSTGAVTSRYFPNWFQQKPGQAPRALIYGSNNKHSWTPARFSGSLLGGKAALTLSGVQPEDEAEYYCLLFYAGAWAFGGGTKLTVL
notes: Fab on M13 phage
B3: SH28 (Fab, V domains shown)
VH: EVQLLESGGGGVQPGRSLRLSCAASGFTFNSYAMYWVRQPPGKGLEWVAAIWYDGSNKEYADFVKGRFTISRDNSKNTLSLQMNSLRDEDTAVYYCAREANLLRGWSRYYYGMDVWGQGTTVTVSS
VL: AELTQSPSSLSASVGDRVTITCRADQNIRRSLNWFQQKPGKAPKLLIYAASSLQSGVPSRFSGSGSGTDFTLTISSLQPEDFATYYCQQSSSTPWTFGRGTKVEIKR
notes: Fab on M13 phage
B4: SH50 (Fab, V domains shown)
VH: B3 VH
VL: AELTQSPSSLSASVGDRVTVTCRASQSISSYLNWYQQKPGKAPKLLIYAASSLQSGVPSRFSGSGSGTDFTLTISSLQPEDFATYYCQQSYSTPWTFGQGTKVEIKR
notes: Fab on M13 phage
B5: SH14 (Fab, V domains shown)
VH: EVQLLESGGGVVQPGRSLRLSCAASGFTFSTYGMHWVRQAPGKGLEWVAVIWFDGSNKEYADSVKGRFTISRDNSKNTLYLQMNSLRAEDTAVYYCAREEVVRGVILWSRKFDYWGQGTLVTVSS
VL: AELTQSPSSLSASVGDRVTITCRASQNIRRSLNWYQHKPGRAPRLLIYAASTLQSGVPSRFRGSGSGTDFTLTINSLQPADFATYYCQQSSNTPWTFGHGTKVEIKR
notes: Fab on M13 phage
B6: SH12 (Fab, V domains shown)
VH: B5 VH with I70V
VL: AELTQSPFSLSASVGDRVTITCRASHNIYRSLNWFQHKPGEAPKLLVYAASSLQRGVPTRFSGSGSGTDFTLTISSLQPEDSATYFCQQSVTFPYTFGQGTKLEIRR
notes: Fab on M13 phage
B7: SH21 (Fab, V domains shown)
VH: B5 VH with I70V
VL: AELTQSPSFLSASVGDRVTITCRASQGIRSYLAWYQQKPGKAPKLLIYAASTLQSGVPSRFSGSGSGTEFTLTIASLQPDDFATYYCQQLNNYPPFTFGPGTKVDIKR
notes: Fab on M13 phage
B8: SH25 (Fab, V domains shown)
VH: VQLLEESGGGVVQPGRSLRLACAASGFSFRSYGMHWVRQAPGRGLEWVAFTWFDGSNKYYVDSVKGRFTISRDNSKNTLYLEMNSLRVDDTAVYYCAREAPMLRGISRYYYAMDVWGPGTTVTVSS
VL: B3 VL with D25S, F35Y, S92N, R99Q
notes: Fab on M13 phage
B9: SH04 (Fab, V domains shown)
VH: B5 VH
VL: B3 VL with D25S, F35Y, S92N, R99Q
notes: Fab on M13 phage
B10: SH20 (Fab, V domains shown)
VH: VQLLEESGGGVVQPGRSLRLSCAASGFTFRSYAMHWVRQAPGKGLEWVAVISYDGSTIYYADSVKGRFTISRANSKNTLFLQMNSLRTEDTAVYYCTRGGFYYDSSGYYGLRHYFDYWGQGTLVTVSS
VL: AELTQSPFSLSASVGDRVTITCRASQSISRSLNWYQHKPGEAPKLLIYAASSLQRGVPPRFSGSGSGTDFTLTISSLQPEDFATYFCQQSVRIPYSFGQGTKLEIKR
notes: Fab on M13 phage
B11: SH08 (Fab, V domains shown)
VH: EVQLLESGGGVVQPGRSLRLSCAVSGFTLTNYGMHWVRQAPGKGLEWVAHVWYDGSKTEYADSVKGRFAVSRDKSKNTLFLQMNSLTAEDTAIYYCARERREKVYILFYSWLDRWGQGTLVTVSS
VL: AELTQSPSSLAASVGDRVTITCRANQTIRTSLNWYQQRPGKAPNLLIYGASRLHSGVPSRFSGGISGADFTLTISSLQPEDFATYYCQQTYGYSRTFGQGTKVDIKR
notes: Fab on M13 phage; also called SH8
B12: SH30 (Fab, V domains shown)
VH: B11 VH
VL: AELTQSPSSLSASVGDRVTITCRASQSIRRSLNWYQQSPGKTPKLLIYAASSLQSGVPSRFSGSGSGTDFTLTISSLQPEDFATYYCQQSYSTLTFGGGTKVEIKR
notes: Fab on M13 phage
B13: SH18 (Fab, V domains shown)
VH: EVQLLESGGGVVQPGRSLRLSCAASGFTFRSYAMHWVRQAPGKGLEWVAATAYDGKNKYYADSVKGRFTISRDNSMNTLFLQMNSLRAEDTAVFYCARGGFYYDSSGYYGLRHYFDSWGQGTLVTVSS
VL: AELTQSPSSLSASVGDRVTITCRASQSISIALNWYQQRPGKAPKLLMYATSTLQSGVPSRFSGSGSGTDFTLTISSLQPEDFATYYCQQYYNKPTFGPGTKVDIKR
notes: Fab on M13 phage
B14: SH16 (Fab, V domains shown)
VH: EVQLLESGGGVVQPGRSLRLSCAASGFTFSSYGMHWVRQAPGRGLEWVALIWYDGGNKEYADSVKGRFSISRDNSKNTLYLQVNSLRADDTAVYYCARDQRAAAGIFYYSRMDVWGQGTTVTVSS
VL: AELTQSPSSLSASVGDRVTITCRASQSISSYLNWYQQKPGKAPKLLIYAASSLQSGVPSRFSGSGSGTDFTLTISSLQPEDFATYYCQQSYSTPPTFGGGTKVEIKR
notes: Fab on M13 phage
B15: SH26 (Fab, V domains shown)
VH: EVQLLESGGGVVQPGRSLRLSCVVSGFTFNNYGMHWVRQAPGKGLEWVAVIWFDGSNKYYADSVKGRFTISRDNSKNTLYLQMNSLRAEDTAVYYCARENQIKLWSRYLYYFDYWGQGTLVTVSS
VL: AELTQSPSSLSASVGDRVTITCRASQSISSYLNWYQQKPGKAPKLLIYAASSLQSGVPSRFSGSGSGTDFTLTISSLQPEDFATYYCQQSYSFRRYSFGQGTKLEIKR
notes: Fab on M13 phage
B16: SH34 (Fab, V domains shown)
VH: EVQLLESGGGVVQPGRSLRLSCAASGFSFSSYGMHWVRQAPGKGLEWVAVISYDGTNKYFADSVKGRFTISRDNSKKTLYLQMTSLRPEDTAVYFCANLRGEVTRRASVPLDIWGQGTMVTVSS
VL: B15 VL with S52G, F93T, R94P, R95P, S97T
notes: Fab on M13 phage
B17: SH24 (Fab, V domains shown)
VH: EVQLLESGGGVAQPGRSLRLSCVASGFSLRSYGMHWVRQAPGKGLEWVADIWFDGSNKDYADSVKGRFTISRDNSKNTLYLQMNSLRAEDTAVYYCARDWRVRAFSSGWLSAFDIWGQGTMVTVSS
VL: AELTQSPSSLSASVGDRVTITCRASQSISTYLNWYQQRPGKAPNLLIYAASTLQRGVPSRFTGSGSGTDFTLTISSLQPEDFATYYCQQSYTTLWTFGQGTKMEIRR
notes: Fab on M13 phage

What follows are binders tested against T1, human Rh(D) antigen on Rh(D)-positive … (assay: agglutination, anti-M13).
Procedure: The binding of anti-Rh(D) Fab/phage or soluble Fab molecules to normal or partial Rh(D) antigens was assessed by indirect agglutination assays as described (Siegel et al., 1994, Blood 83:2334; Siegel et al., 1997, J. Immunol. Meth. 206: 73). […] Following a one-hour incubation at 37° C., the RBCs were washed 3 times with 2 ml of cold PBS to remove unbound antibody. The resulting RBC pellets were resuspended in 100 μl of a 10 μg/ml solution of sheep anti-M13 antibody (5 Prime-3 Prime, Boulder, Colo.) for Fab/phage experiments or goat anti-human κ or λ light chain antibody (Tago, Burlingame, Calif.) for $\gamma_1\kappa$ or $\gamma_1\lambda$ soluble Fab experiments, respectively. The RBC suspensions were transferred to the round-bottomed wells of a 96-well microplate and left undisturbed for 2 hours. Negative reactions show sharp ~2 millimeter diameter RBC spots whereas the RBCs in agglutinated wells form a thin carpet coating the entire floor of the well (Siegel et al., 1997, J. Immunol. Meth. 206:73). Agglutination titers for recombinant antibodies were determined by performing serial 2-fold dilutions in 1% BSA/PBS.
Fifty-six randomly chosen colonies were selected, and monoclonal Fab/phage preparations were separately produced from each of these individual colonies, using the methods described herein in Example 1. Rh(D) specificity was determined by indirect agglutination using anti-M13 antibody, as described herein in Examples 1 and 2.

Binder	binding result
B1	binds
B2	binds
B3	binds
B4	binds
B5	binds
B6	binds
B7	binds
B8	binds
B9	binds
B10	binds
B11	binds
B12	binds
B13	binds
B14	binds
B15	binds
B16	binds
B17	binds
